Test results: US20230295310A1 (ABCELLERA BIOLOGICS, published 2023)

Target: human EGFR, C-terminal eGFP-tagged, on CHO-K1 cells (human, UniProt P00533 25-1210)
Experiment: cell-based or functional assay

Row | EC50 CHO-K1 EGFR Low (nM); T cell activation bioassay, luciferase [nM] | EC50 CHO-K1 EGFR Med (nM); T cell activation bioassay, luciferase [nM] | Binder
1 | 0.0706 | 0.0122 | GOMP001_bsAb_043 (bispecific antibody, human IgG1, kappa, L234A L235A) heavy 1: QVQLVQSGAEVKKPGASVKVSCKASGYTFTSHWMHWVRKAPGQGLEWIGEFNPSNGRTNYNEEFKSKATMTVDTSTNTAYMELSSLRSEDTAVYYCASRDYDYDGRYFDYWGQGTLVTVSSASTKGPSVFPLAPSSKSTSGGTAALGCLVADYFPEPVTVSWNSGALTSGVHTFPAVLQSSGLYSLSSVVTVPSSSLGTQTYICNVNHKPSNTKVDEKVEPKSCDKTHTCPPCPAPEAAGGPSVFLFPPKPKDTLMISRTPEVTCVVVDVSHEDPEVKFNWYVDGVEVHNAKTKPREEQYNSTYRVVSVLTVLHQDWLNGKEYKCKVSNKALPAPIEKTISKAKGQPREPQVYTLPPSREEMTDNQVSLTCLVKGFYPSDIAVEWESNGQPENNYKTTPPVLMSDGSFFLASKLTVDKSRWQQGNVFSCSVMHEALHNHYTQKSLSLSPG light 1: RIQMTQSPSSLSASVGDRVTITCSASSSVTYMYWYQDKPGKAPKLLIYDTSNLASGVPSRFSGSGSGTDYTFTISSLQPEDIATYYCQQWSSHIFTFGQGTKVEIKRTVAAPSVFIFPPSDKQLKSGTARVVCLLNNFYPREAKVQWKVDNALQSGNSQESVTEQDSKDSTYSLSSTLTLSKADYEKHKVYACEVTHQGLSSPVTKSFNRGEC heavy 2: EVQLVESGGGLVKTGGSLRLSCVASGFSFKKAWMNWVRYAPGKGLEWVGRIKRNTDGGTADYAARVKGRFTLSRDDSKKTLFLQMNSLKTEDTAVYYCTTLDSSSYYVGYYYMDVWGRGTTVTVSSASTKGPSVFPLAPSSKSTSGGTAALGCLVKDYFPEPVTVSWNSGALTSGVHTFPAVLQSSGLYSLSSVVTVPSSSLGTQTYICNVNHKPSNTKVDKKVEPKSCDKTHTCPPCPAPEAAGGPSVFLFPPKPKDTLMISRTPEVTCVVVDVSHEDPEVKFNWYVDGVEVHNAKTKPREEQYNSTYRVVSVLTVLHQDWLNGKEYKCKVSNKALPAPIEKTISKAKGQPRRPRVYTLPPSREEMTKNQVSLVCLVKGFYPSDIAVEWESNGQPENNYKTTPPVLDSDGSFFLYSVLTVDKSRWQQGNVFSCSVMHEALHNHYTQKSLSLSPG light 2: DIQMTQSPSSVSASVGDRVTITCRASQDINNWLAWYQRKPGDAPKLLIYTASSLQSGVPSRFSGSGSGTDFTLTIGSLQPEDFATYYCQQAHSLPITFGQGTRLEIKRTVAAPSVFIFPPSDEQLKSGTASVVCLLNNFYPREAKVQWKVDNALQSGNSQESVTEQDSKDSTYSLSSTLTLSKADYEKHKVYACEVTHQGLSSPVTKSFNRGEC
2 | 0.071 | 0.00792 | GOMP001_bsAb_045 (bispecific antibody, human IgG1, kappa, L234A L235A) heavy 1: QVQLVQSGAEVKKPGASVKVSCKASGYTFTSHWMHWVRKAPGQGLEWIGEFNPSNGRTNYNEEFKSKATMTVDTSTNTAYMELSSLRSEDTAVYYCASRDYDYDGRYFDYWGQGTLVTVSSASTKGPSVFPLAPSSKSTSGGTAALGCLVADYFPEPVTVSWNSGALTSGVHTFPAVLQSSGLYSLSSVVTVPSSSLGTQTYICNVNHKPSNTKVDEKVEPKSCDKTHTCPPCPAPEAAGGPSVFLFPPKPKDTLMISRTPEVTCVVVDVSHEDPEVKFNWYVDGVEVHNAKTKPREEQYNSTYRVVSVLTVLHQDWLNGKEYKCKVSNKALPAPIEKTISKAKGQPREPQVYTLPPSREEMTDNQVSLTCLVKGFYPSDIAVEWESNGQPENNYKTTPPVLMSDGSFFLASKLTVDKSRWQQGNVFSCSVMHEALHNHYTQKSLSLSPG light 1: RIQMTQSPSSLSASVGDRVTITCSASSSVTYMYWYQDKPGKAPKLLIYDTSNLASGVPSRFSGSGSGTDYTFTISSLQPEDIATYYCQQWSSHIFTFGQGTKVEIKRTVAAPSVFIFPPSDKQLKSGTARVVCLLNNFYPREAKVQWKVDNALQSGNSQESVTEQDSKDSTYSLSSTLTLSKADYEKHKVYACEVTHQGLSSPVTKSFNRGEC heavy 2: QVQLVQSGAEVKKPGASVKVSCKASGYTFTSHWMHWVRKAPGQGLEWIGEFNPSNGRTNYNEEFKSKATMTVDTSTNTAYMELSSLRSEDTAVYYCASRDYDYDGRYFDYWGQGTLVTVSSASTKGPSVFPLAPSSKSTSGGTAALGCLVADYFPEPVTVSWNSGALTSGVHTFPAVLQSSGLYSLSSVVTVPSSSLGTQTYICNVNHKPSNTKVDEKVEPKSCDKTHTCPPCPAPEAAGGPSVFLFPPKPKDTLMISRTPEVTCVVVDVSHEDPEVKFNWYVDGVEVHNAKTKPREEQYNSTYRVVSVLTVLHQDWLNGKEYKCKVSNKALPAPIEKTISKAKGQPREPQVYTLPPSREEMTDNQVSLTCLVKGFYPSDIAVEWESNGQPENNYKTTPPVLMSDGSFFLASKLTVDKSRWQQGNVFSCSVMHEALHNHYTQKSLSLSPG light 2: not shown

Continued, binder first:

Row | Binder | EC50 CHO-K1 EGFR Low (nM); T cell activation bioassay, luciferase [nM] | EC50 CHO-K1 EGFR Med (nM); T cell activation bioassay, luciferase [nM]
3 | GOMP001_bsAb_046 (bispecific antibody, human IgG1, kappa, L234A L235A) heavy 1: QVQLVQSGAEVKKPGASVKVSCKASGYTFTSHWMHWVRKAPGQGLEWIGEFNPSNGRTNYNEEFKSKATMTVDTSTNTAYMELSSLRSEDTAVYYCASRDYDYDGRYFDYWGQGTLVTVSSASTKGPSVFPLAPSSKSTSGGTAALGCLVADYFPEPVTVSWNSGALTSGVHTFPAVLQSSGLYSLSSVVTVPSSSLGTQTYICNVNHKPSNTKVDEKVEPKSCDKTHTCPPCPAPEAAGGPSVFLFPPKPKDTLMISRTPEVTCVVVDVSHEDPEVKFNWYVDGVEVHNAKTKPREEQYNSTYRVVSVLTVLHQDWLNGKEYKCKVSNKALPAPIEKTISKAKGQPREPQVYTLPPSREEMTDNQVSLTCLVKGFYPSDIAVEWESNGQPENNYKTTPPVLMSDGSFFLASKLTVDKSRWQQGNVFSCSVMHEALHNHYTQKSLSLSPG light 1: not shown heavy 2: QVQLVQSGAEVKKPGASVKVSCKASGYTFTSHWMHWVRYAPGQGLEWIGEFNPSNGRTNYNEKFKSKATMTVDTSTNTAYMELSSLRSEDTAVYYCASRDYDYDGRYFDYWGRGTLVTVSSASTKGPSVFPLAPSSKSTSGGTAALGCLVKDYFPEPVTVSWNSGALTSGVHTFPAVLQSSGLYSLSSVVTVPSSSLGTQTYICNVNHKPSNTKVDKKVEPKSCDKTHTCPPCPAPEAAGGPSVFLFPPKPKDTLMISRTPEVTCVVVDVSHEDPEVKFNWYVDGVEVHNAKTKPREEQYNSTYRVVSVLTVLHQDWLNGKEYKCKVSNKALPAPIEKTISKAKGQPRRPRVYTLPPSREEMTKNQVSLVCLVKGFYPSDIAVEWESNGQPENNYKTTPPVLDSDGSFFLYSVLTVDKSRWQQGNVFSCSVMHEALHNHYTQKSLSLSPG light 2: DIQMTQSPSSLSASVGDRVTITCSASSSVTYMYWYQRKPGDAPKLLIYDTSNLASGVPSRFSGSGSGTDYTFTISSLQPEDIATYYCQQWSSHIFTFGQGTKVEIKRTVAAPSVFIFPPSDEQLKSGTASVVCLLNNFYPREAKVQWKVDNALQSGNSQESVTEQDSKDSTYSLSSTLTLSKADYEKHKVYACEVTHQGLSSPVTKSFNRGEC | 0.02 | 0.00409
4 | GOMP001_bsAb_044 (bispecific antibody, human IgG1, kappa, L234A L235A) heavy 1: EVQLVESGGGLVKTGGSLRLSCVASGFSFKKAWMNWVRYAPGKGLEWVGRIKRNTDGGTADYAARVKGRFTLSRDDSKKTLFLQMNSLKTEDTAVYYCTTLDSSSYYVGYYYMDVWGRGTTVTVSSASTKGPSVFPLAPSSKSTSGGTAALGCLVKDYFPEPVTVSWNSGALTSGVHTFPAVLQSSGLYSLSSVVTVPSSSLGTQTYICNVNHKPSNTKVDKKVEPKSCDKTHTCPPCPAPEAAGGPSVFLFPPKPKDTLMISRTPEVTCVVVDVSHEDPEVKFNWYVDGVEVHNAKTKPREEQYNSTYRVVSVLTVLHQDWLNGKEYKCKVSNKALPAPIEKTISKAKGQPRRPRVYTLPPSREEMTKNQVSLVCLVKGFYPSDIAVEWESNGQPENNYKTTPPVLDSDGSFFLYSVLTVDKSRWQQGNVFSCSVMHEALHNHYTQKSLSLSPG light 1: DIQMTQSPSSVSASVGDRVTITCRASQDINNWLAWYQRKPGDAPKLLIYTASSLQSGVPSRFSGSGSGTDFTLTIGSLQPEDFATYYCQQAHSLPITFGQGTRLEIKRTVAAPSVFIFPPSDEQLKSGTASVVCLLNNFYPREAKVQWKVDNALQSGNSQESVTEQDSKDSTYSLSSTLTLSKADYEKHKVYACEVTHQGLSSPVTKSFNRGEC heavy 2: QVQLVQSGAEVKKPGASVKVSCKASGYTFTSHWMHWVRYAPGQGLEWIGEFNPSNGRTNYNEKFKSKATMTVDTSTNTAYMELSSLRSEDTAVYYCASRDYDYDGRYFDYWGRGTLVTVSSASTKGPSVFPLAPSSKSTSGGTAALGCLVKDYFPEPVTVSWNSGALTSGVHTFPAVLQSSGLYSLSSVVTVPSSSLGTQTYICNVNHKPSNTKVDKKVEPKSCDKTHTCPPCPAPEAAGGPSVFLFPPKPKDTLMISRTPEVTCVVVDVSHEDPEVKFNWYVDGVEVHNAKTKPREEQYNSTYRVVSVLTVLHQDWLNGKEYKCKVSNKALPAPIEKTISKAKGQPRRPRVYTLPPSREEMTKNQVSLVCLVKGFYPSDIAVEWESNGQPENNYKTTPPVLDSDGSFFLYSVLTVDKSRWQQGNVFSCSVMHEALHNHYTQKSLSLSPG light 2: DIQMTQSPSSLSASVGDRVTITCSASSSVTYMYWYQRKPGDAPKLLIYDTSNLASGVPSRFSGSGSGTDYTFTISSLQPEDIATYYCQQWSSHIFTFGQGTKVEIKRTVAAPSVFIFPPSDEQLKSGTASVVCLLNNFYPREAKVQWKVDNALQSGNSQESVTEQDSKDSTYSLSSTLTLSKADYEKHKVYACEVTHQGLSSPVTKSFNRGEC | 0.0136 | 0.0041
5 | GOMP001_bsAb_049 (bispecific antibody, human IgG1, kappa, L234A L235A) heavy 1: QVQLVQSGAEVKKPGASVKVSCKASGYTFTSHWMHWVRKAPGQGLEWIGEFNPSNGRTNYNEEFKSKATMTVDTSTNTAYMELSSLRSEDTAVYYCASRDYDYDGRYFDYWGQGTLVTVSSASTKGPSVFPLAPSSKSTSGGTAALGCLVADYFPEPVTVSWNSGALTSGVHTFPAVLQSSGLYSLSSVVTVPSSSLGTQTYICNVNHKPSNTKVDEKVEPKSCDKTHTCPPCPAPEAAGGPSVFLFPPKPKDTLMISRTPEVTCVVVDVSHEDPEVKFNWYVDGVEVHNAKTKPREEQYNSTYRVVSVLTVLHQDWLNGKEYKCKVSNKALPAPIEKTISKAKGQPREPQVYTLPPSREEMTDNQVSLTCLVKGFYPSDIAVEWESNGQPENNYKTTPPVLMSDGSFFLASKLTVDKSRWQQGNVFSCSVMHEALHNHYTQKSLSLSPG light 1: RIQMTQSPSSLSASVGDRVTITCSASSSVTYMYWYQDKPGKAPKLLIYDTSNLASGVPSRFSGSGSGTDYTFTISSLQPEDIATYYCQQWSSHIFTFGQGTKVEIKRTVAAPSVFIFPPSDKQLKSGTARVVCLLNNFYPREAKVQWKVDNALQSGNSQESVTEQDSKDSTYSLSSTLTLSKADYEKHKVYACEVTHQGLSSPVTKSFNRGEC heavy 2: QVQLVESGGGVVQPGRSLRLSCAASGFTFSTYGMHWVRYAPGKGLEWVAVIWYDGSHKYYADRVKGRFTISRDNSKKTLYLQMNSLRAEDTGIYYCARTGISGNMSYFYFDHWGRGILVTVSSASTKGPSVFPLAPSSKSTSGGTAALGCLVKDYFPEPVTVSWNSGALTSGVHTFPAVLQSSGLYSLSSVVTVPSSSLGTQTYICNVNHKPSNTKVDKKVEPKSCDKTHTCPPCPAPEAAGGPSVFLFPPKPKDTLMISRTPEVTCVVVDVSHEDPEVKFNWYVDGVEVHNAKTKPREEQYNSTYRVVSVLTVLHQDWLNGKEYKCKVSNKALPAPIEKTISKAKGQPRRPRVYTLPPSREEMTKNQVSLVCLVKGFYPSDIAVEWESNGQPENNYKTTPPVLDSDGSFFLYSVLTVDKSRWQQGNVFSCSVMHEALHNHYTQKSLSLSPG light 2: not shown | – | 0.138
